Legend:
[1] = molecular target: T1, BCMA on cells (JEKO cells, plasmablasts) (human, UniProt Q02223 1-184); assay: cell-based or functional assay
T1 sequence (looked up): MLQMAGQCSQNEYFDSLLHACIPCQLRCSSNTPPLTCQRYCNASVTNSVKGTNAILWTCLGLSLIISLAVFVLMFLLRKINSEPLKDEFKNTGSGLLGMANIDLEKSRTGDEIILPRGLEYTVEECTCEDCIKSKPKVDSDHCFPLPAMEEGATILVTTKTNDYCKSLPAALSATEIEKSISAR

[2] = molecular target: T2, Human CD3ED, TPP401 (human, UniProt P07766 23-126; P04234 22-105); assay: SPR (Biacore T200), single-cycle kinetics, antibody captured on anti-human IgG, antigen injected; sensorgram of sample stored at pH 8, 40 C compared with the non-stressed standard
T2 construct: 'CD3ED' is read here as the CD3 epsilon/delta pair; also called Antigen 2
Description: (§1) SPR experiments were performed using a Biacore T200 system (GE Healthcare, Uppsala, Sweden) with analysis and sample compartment temperatures set at 25° C. and 7° C. respectively.
(§2) Anti-Human IgG (from anti-human IgG Capture Kit) was amine coupled to the surface of a CM5 chip according to the manufacturer's instructions. Molecule bispecific antibodies diluted to 1 μg/mL in running buffer were captured on the chip surface in a 60 s injection. Following the single-cycle kinetics procedure, antigen was next injected five times (30 s per injection) at incrementally increasing concentrations at a flow rate of 30 μL/min. Antigen concentrations ranged from 0.08 to 50 nM for BCMA and between 12.7 to 1000 nM for CD3. A 300 s dissociation time was added after the last antigen injection. Following each experiment, all flow cells were regenerated using a 30 s injection of 3M MgCl₂.
(§3) Prior to analysis, data were double referenced by first subtracting data from a reference flow cell and then subtracting a blank cycle where buffer was injected instead of antigen. The sensorgram comparison analysis was implemented using a Biacore T200 (software version 3.0). All data were normalized with respect to the response where 100% reflects the maximum binding obtained during injection and 0% reflects the baseline. Average and ±3 standard deviation (SD) sensorgrams were calculated from ten or more independent sensorgrams of each molecule's non-stressed material (standard). For quantitation of binding similarities of the stressed samples against the corresponding non-stressed standard, sample sensorgrams were co-evaluated with the sensorgrams of the standard. The degree of similarity was calculated based on how many sample data points fell inside or outside the ±3 standard deviation limits according to Equation 2, where SSQ is the sum of squares (Karlsson, R, Pol, E., and Frostell, A. (2016); Analytical Biochemistry 502, 53-63).

[3] = molecular target: T3, Human BCMA, TPP208 (human, UniProt Q02223 1-54, limits assumed); assay: as above
T3 construct: also called Antigen 1
T3 sequence (looked up): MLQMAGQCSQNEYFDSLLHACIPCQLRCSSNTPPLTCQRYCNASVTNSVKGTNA
Description: as §1, §2, §3

[4] = molecular target: T2, Human CD3ED, TPP401; assay: SPR (Biacore T200), single-cycle kinetics, antibody captured on anti-human IgG, antigen injected; sensorgram of sample stored at pH 4, 40 C compared with the non-stressed standard
Description: as §1, §2, §3

[5] = molecular target: T3, Human BCMA, TPP208; assay: as above
Description: as §1, §2, §3

[6] = molecular target: T1, BCMA on cells (JEKO cells, plasmablasts); assay: cell-based or functional assay; remark: listed apart in the source
[7] = molecular target: T2, Human CD3ED, TPP401; assay: SPR (Biacore T200), single-cycle kinetics, antibody captured on anti-human IgG, antigen injected; sensorgram of sample stored at pH 6, 40 C compared with the non-stressed standard
Description: as §1, §2, §3

[8] = molecular target: T3, Human BCMA, TPP208; assay: as above
Description: as §1, §2, §3

[9] = molecular target: T1, BCMA on cells (JEKO cells, plasmablasts); assay: cell-based or functional assay; remark: listed apart in the source
[10] = molecular target: T2, Human CD3ED, TPP401; assay: SPR (Biacore T200), single-cycle kinetics, antibody captured on anti-human IgG, antigen injected; sensorgram of sample stored at pH 6 with tert-butyl peroxide, 40 C compared with the non-stressed standard
Description: as §1, §2, §3

[11] = molecular target: T3, Human BCMA, TPP208; assay: as above
Description: as §1, §2, §3

[12] = molecular target: T4, BCMA (human, UniProt Q02223 1-54, limits assumed)
T4 construct: also called B cell maturation antigen; TNFRSF17
T4 sequence (looked up): T3 sequence (looked up)

T2 sequence (P07766 23-126, chain 1 of 2): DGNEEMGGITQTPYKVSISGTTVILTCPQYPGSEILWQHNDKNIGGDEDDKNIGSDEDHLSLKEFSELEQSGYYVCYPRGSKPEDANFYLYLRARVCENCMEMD
T2 sequence (P04234 22-105, chain 2 of 2): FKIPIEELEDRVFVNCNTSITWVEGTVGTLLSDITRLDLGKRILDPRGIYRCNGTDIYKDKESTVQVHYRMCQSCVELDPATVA

B1: Mab102 (bispecific antibody, human IgG1, L234A L235A)
heavy 1: EVQLLESGGGLVQPGGSLRLSCAASGFTFSDNAMGWVRQAPGKGLEWVSAISGPGSSTYYADSVKGRFTISRDNSKNTLYLQMNSLRAEDTAVYYCAKVLGWFDYWGQGTLVTVSSASTKGPSVFPLAPSSKSTSGGTAWLGCEVTDYFPEPVTVSWNSGALTSGVHTFPAVLESSGLYSLSSVVTVPSSSLGTQTYICNVNHKPSNTKVDKKVEPKSCDKTHTCPPCPAPEAAGGPSVFLFPPKPKDTLMISRTPEVTCVVVDVSHEDPEVKFNWYVDGVEVHNAKTKPREEQYNSTYRVVSVLTVLHQDWLNGKEYKCKVSNKALGAPIEKTISKAKGQPREPQVYVYPPSREEMTKNQVSLTCLVKGFYPSDIAVEWESNGQPENNYKTTPPVLDSDGSFALVSKLTVDKSRWQQGNVFSCSVMHEALHNHYTQKSLSLSPG
heavy 2: EVQLLESGGGLVQPGGSLRLSCAASGFTFSDNAMGWVRQAPGKGLEWVSAISGPGSSTYYADSVKGRFTISRDNSKNTLYLQMNSLRAEDTAVYYCAKVLGWFDYWGQGTLVTVSSASTKGPSVFPLAPSSKSTSGGTAWLGCEVTDYFPEPVTVSWNSGALTSGVHTFPAVLESSGLYSLSSVVTVPSSSLGTQTYICNVNHKPSNTKVDKKVEPKSCDGGGGSGGGGSQAVVTQEPSLTVSPGGTVTLTCGSSTGAVTTSNYANWVQEKPGQAFRGLIGGTNKRAPGTPARFSGSLLGGKAALTLSGAQPEDEAEYYCALWYSNLWVFGGGTKLTVLSSASTKGPSVFPLAPSSKSTSGGTAALGCLVKDYFPEPVTVSWNSGALTSGVHTFPAVLQSSGLYSLSSVVTVPSSSLGTQTYICNVNHKPSNTKVDKKVEPKSCDKTHTCPPCPAPEAAGGPSVFLFPPKPKDTLMISRTPEVTCVVVDVSHEDPEVKFNWYVDGVEVHNAKTKPREEQYNSTYRVVSVLTVLHQDWLNGKEYKCKVSNKALGAPIEKTISKAKGQPREPQVYVLPPSREEMTKNQVSLLCLVKGFYPSDIAVEWESNGQPENNYLTWPPVLDSDGSFFLYSKLTVDKSRWQQGNVFSCSVMHEALHNHYTQKSLSLSPG
light 1: EIVLTQSPGTLSLSPGERATLSCRASQSVSSYYLAWYQQKPGQAPRLLISGAGSRATGIPDRFSGSGSGTDFTLTISRLEPEDFAVYYCQQYGYPPDFTFGQGTKVEIKRTVAAPSVAIFPPSDERLKSGTASVVCVLNNFYPREAKVQWKVDNALQSGNSQESVTEQDSKDSTYSLSSRLTLSKADYEKHKVYACEVTHQGLSSPVTKSFNRGEC
light 2: EVQLLESGGGLVQPGGSLRLSCAASGFTFSTYAMNWVRQAPGKGLEWVSRIRSKYNNYATYYADSVKGRFTISRDDSKNTLYLQMNSLRAEDTAVYYCVRHGNFGNSYVSWFAYWGQGTLVTVSSASVAAPSVFIFPPSDEQLKSGTASVVCLLNNFYPREAKVQWKVDNALQSGNSQESVTEQDSKDSTYSLSSTLTLSKADYEKHKVYACEVTHQGLSSPVTKSFNRGEC
notes: also called BCMA TCE; BCMA T cell engager
In the case of B1, the “EC50 for BM plasmablast killing (nM), bone marrow mononuclear cells, 24 h” value [1] is reported as 0.00281 nM, the “pH 8 SPR % similarity-CD3” value [2] is reported as 70.1% and the “pH 8 SPR % similarity-BCMA” value [3] is reported as 95.7%. For the same binder, the “pH 4 SPR % similarity-CD3” value [4] was 100%, the “pH 4 SPR % similarity-BCMA” value [5] was 100% and the “EC50 PB killing (nM), AAV-1 (n = 1)” value [6] was 0.003 nM. The “EC50 PB killing (nM), healthy volunteers (n = 3)” value [6] was 0.007 nM, the “pH 6 SPR % similarity-CD3” value [7] was 100% and the “pH 6 SPR % similarity-BCMA” value [8] was 99.4%. For the same binder, the “EC50 for JEKO cell killing (nM), T cell-mediated, annexin V, 20 h, T:E 1:2” value [9] was 0.12 nM, the “pH 6-TBP SPR % similarity-CD3” value [10] was 72.3% and the “pH 6-TBP SPR % similarity-BCMA” value [11] was 54%. It also gave a Kd [12] of 60 pM.
